The values below are quoted from earlier work in article PMC3515962.

For orientation: Kd means the free concentration of one partner at which half of the binding sites on the other are occupied at equilibrium, for simple one-to-one binding.

This data set has as its target IL-2 receptor (Mus musculus) (UniProt P01590). Put plainly: radioligand binding.
UniProt P01590, sequence (P01590 22-236, chain 1 of 3): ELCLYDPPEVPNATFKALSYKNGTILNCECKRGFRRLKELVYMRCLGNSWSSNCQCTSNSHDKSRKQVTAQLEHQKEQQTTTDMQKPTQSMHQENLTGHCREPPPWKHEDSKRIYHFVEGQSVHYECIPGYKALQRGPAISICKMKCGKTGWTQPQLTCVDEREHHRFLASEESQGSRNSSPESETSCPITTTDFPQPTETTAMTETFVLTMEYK
UniProt P01590, sequence (P16297 27-240, chain 2 of 3, further chain): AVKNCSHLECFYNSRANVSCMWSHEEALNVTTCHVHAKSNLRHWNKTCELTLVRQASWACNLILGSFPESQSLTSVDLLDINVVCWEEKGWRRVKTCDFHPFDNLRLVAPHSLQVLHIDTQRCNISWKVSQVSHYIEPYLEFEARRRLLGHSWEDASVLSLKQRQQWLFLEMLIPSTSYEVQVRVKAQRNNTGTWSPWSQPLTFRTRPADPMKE
UniProt P01590, sequence (P34902 23-263, chain 3 of 3, further chain): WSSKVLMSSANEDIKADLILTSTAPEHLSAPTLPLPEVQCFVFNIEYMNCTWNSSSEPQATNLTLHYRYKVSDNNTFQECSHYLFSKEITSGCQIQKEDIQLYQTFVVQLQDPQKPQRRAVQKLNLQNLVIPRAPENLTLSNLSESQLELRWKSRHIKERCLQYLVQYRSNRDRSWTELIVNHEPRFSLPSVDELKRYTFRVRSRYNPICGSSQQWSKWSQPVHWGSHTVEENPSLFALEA

Regarding TCGF (IL-2) (from UniProt P60568), the Kd was 0.02 nM.
